The data set addresses carcinoembryonic antigen (CEA) (UniProt P06731 35-685). Nature of the data set: sandwich FLISA (antibody capture, aptamer nanoparticle probe); CEA on anti-CEA antibody plate; linear 0.01-20 ng/mL, LOD 7.6 pg/mL (assay values, not affinity); CEA capture 37 C 1 h, aptamer probe room temperature 1 h; washes in PBS 10 mM pH 7.4; probe blocked with 1% BSA; read-out with 4 mM OPD in 10 mM HAc-NaAc pH 5.5, 3 h, 565 nm. The settings on record: protein: commercial.

The source of these data is paper PMC9599728, “Polydopamine-Functionalized Copper Peroxide/ZIF-8 Nanoparticle-Based Fluorescence-Linked Immunosorbent Assay for the Sensitive Determination of Carcinoembryonic Antigen by Self-Supplied H2O2 Generatio”.

Chain of carcinoembryonic antigen (CEA) (P06731 35-685): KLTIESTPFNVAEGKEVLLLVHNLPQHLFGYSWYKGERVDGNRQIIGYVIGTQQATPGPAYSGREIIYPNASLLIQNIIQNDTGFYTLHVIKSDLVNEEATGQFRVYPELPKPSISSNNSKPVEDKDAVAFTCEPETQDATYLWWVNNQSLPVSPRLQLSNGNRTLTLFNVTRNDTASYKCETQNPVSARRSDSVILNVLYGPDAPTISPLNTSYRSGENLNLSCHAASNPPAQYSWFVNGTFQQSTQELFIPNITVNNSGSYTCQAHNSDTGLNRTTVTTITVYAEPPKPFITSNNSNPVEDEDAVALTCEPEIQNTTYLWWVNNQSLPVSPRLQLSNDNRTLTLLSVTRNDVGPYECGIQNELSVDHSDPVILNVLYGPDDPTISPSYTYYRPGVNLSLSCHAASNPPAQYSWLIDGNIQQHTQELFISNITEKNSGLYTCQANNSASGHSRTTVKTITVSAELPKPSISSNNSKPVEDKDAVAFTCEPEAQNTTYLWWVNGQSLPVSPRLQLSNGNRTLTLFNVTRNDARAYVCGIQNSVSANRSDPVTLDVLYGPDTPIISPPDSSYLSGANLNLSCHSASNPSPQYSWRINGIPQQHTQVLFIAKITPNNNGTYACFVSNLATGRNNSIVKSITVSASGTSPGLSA

B1: CEA aptamer (ssDNA)
DNA: TTTTATACCAGCTTATTCAATT
modifications: 5'-NH2; coupled by glutaraldehyde to CP/ZIF-8/PDA nanoparticles
As to B1, the binding result is given as “binds”.
